Laboratory results: paper PMC11511291, “Structures of the Varicella Zoster Virus Glycoprotein E and Epitope Mapping of Vaccine-Elicited Antibodies” (Vaccines, 2024)

B1: Fab 5A2 (recombinant Fab of human anti-gE antibody 5A2, elicited by ZVL vaccination) (Fab, V domains shown)
VH: QVQLQESGPGLVKPSETLSLTCIVSGGSISRYYWSWIRQPPGRGLEWIGNIYYTGTTNYNPSLQSRVTISLDTSKNQFSLRLTSVTAADTAVYYCARIGGVSFGERPIDYWGQGTLVTVSS
VL: DIQMTQSPSSLSASVGDRVTITCRASQTISTYLNWYQQKPGKAPKLLIYAASTLQSGVPSRFSGSGSGTDFTLTITSLQPEDFAAYYCQQSYSIPLTFGGGTKVEIK
notes: also called 5A2 Fab; source: HEK293 Expi cells, transient, purified (StrepTrap HP, SEC)
B2: Fab 1E8 (recombinant Fab of human anti-gE antibody 1E8, elicited by ZVL vaccination) (Fab, V domains shown)
VH: QVQLQESGPGLVRPSQTLSLTCTVSGGSITSGSFYWSWVRQSAGKGLEWIGRIFKTGSTTYKPSLKSRVTMSVDTSKNQFSLKLSSVTATDTAVYFCARAPFYNDFSGYSYYFDYWGQGTLVTVSS
VL: QSVLTQPPSASGTPGQRVTISCSGSSSDIGPNTVHWYRQVPGTAPTLLIYSDNQRPSGVPARFSGSRSGTSASLAISGLQSEDEAIYYCAAWDDSLNPLYVFGTGTKVTVL
notes: source: HEK293 Expi cells, transient, purified (StrepTrap HP, SEC)
B3: Fab 1A2 (recombinant Fab of human anti-gE antibody 1A2, elicited by ZVL vaccination) (Fab, V domains shown)
VH: EVQLVQSGAEMKKPGASVKVSCKTSGYVFNEYYIHWVRQAPGQGLEWLGRINPNSGDANYAPKFQGRVTLTRDTSIRTYFMELNRLRSDDTAVYYCARIMYFEYDSWSDYWGQGTLVTVSS
VL: DIQMTQSPSSLSASVGDRVTITCRASQSIRSNLNWYQQKPGKAPNVLIYATSSLQSGVPSRFSGSGSGTDFTLTIRSLQPEDFATYYCQQSYSLPWTFGQGTKVEIK
notes: as for B2
B4: Fab 1E3 (recombinant Fab of human anti-gE antibody 1E3, elicited by ZVL vaccination) (Fab, V domains shown)
VH: QVQLQESGPGLVKPSQTLSLTCTVSGGSISSNDYYWTWIRQSPGKGLEWIGFISYNGDTYYNPSLKRRGTISVDTSKIQFSLRLSSVTAADTAVYYCARVRTSSTTSYYFDYWGQGTLVTVSS
VL: DIQMTQSPSSLSASVGDRVTITCRASQGIRNYLNWYQQKPGKAPMLLIYGASSLQNGVPSRFSGSGSGTEFTLTISSLQPEDFATYYCQQSYRTLTFGPGTKVDIK
notes: also called 1E3 Fab; source: HEK293 Expi cells, transient, purified (StrepTrap HP, SEC)

Columns and labels:
[1] = biological target: T1, VZV glycoprotein E, full-length gE ectodomain (gE_FL) (Varicella-zoster virus; strain not …, UniProt P09259); assay: BLI; Octet Red96; Fabs loaded onto FAB2G biosensors (0.5 to 1.0 nm), gE as analyte at 25 nM to 1.6 nM; 1 x PBS with 1% BSA; settings: both partners purified
T1 construct: Varicella zoster virus glycoprotein E (gE), 'full-length gE ectodomain', includes the disordered N-terminal region (residues 1-115); The construct used in the HPLC-SEC binning is only called 'VZV gE'; also called FL gE; VZV gE; source: Expi293 cells, transfected, purified from culture supernatant (HisTrap, Superdex 200 SEC)

[2] = biological target: T1, VZV glycoprotein E, full-length gE …; assay: SEC; HPLC-SEC epitope binning: VZV gE mixed with primary Fab at mass ratio 1:3 for 10 min at room temperature, then with secondary Fab at the same ratio; Superdex 200 Increase 3.2/300; settings: both partners purified

T1 sequence (P09259 whole entry, looked up, the tested form may be a part): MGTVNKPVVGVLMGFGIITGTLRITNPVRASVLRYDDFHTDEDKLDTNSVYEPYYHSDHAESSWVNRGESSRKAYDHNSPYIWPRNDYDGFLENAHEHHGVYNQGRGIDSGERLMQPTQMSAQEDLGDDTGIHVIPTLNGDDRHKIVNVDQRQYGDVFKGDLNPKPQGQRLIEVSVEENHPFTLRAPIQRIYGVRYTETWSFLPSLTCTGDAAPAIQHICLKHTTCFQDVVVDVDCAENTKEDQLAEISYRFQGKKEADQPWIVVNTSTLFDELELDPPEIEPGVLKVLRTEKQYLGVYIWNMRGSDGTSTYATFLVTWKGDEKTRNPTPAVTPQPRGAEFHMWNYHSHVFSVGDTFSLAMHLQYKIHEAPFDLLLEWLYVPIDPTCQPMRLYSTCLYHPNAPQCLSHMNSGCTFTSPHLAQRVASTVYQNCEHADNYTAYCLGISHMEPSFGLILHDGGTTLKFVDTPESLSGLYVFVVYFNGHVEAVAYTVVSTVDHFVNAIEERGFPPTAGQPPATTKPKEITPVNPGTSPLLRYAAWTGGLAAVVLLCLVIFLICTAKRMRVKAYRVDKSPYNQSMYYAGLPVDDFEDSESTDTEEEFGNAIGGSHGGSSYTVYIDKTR

Row | Binder | binding result [1] | binding result [2]
1 | B1 | binds | –
2 | B2 | – | binds
3 | B3 | binds | –
4 | B4 | binds | –
